According to patent publication US5994504:

Target: VDRE-BP (NWP nuclear VDRE binding protein, B95-8 nuclear extract) (UniProt Q9TTV2)
Assay: competition
Settings: 100-fold excess unlabeled competitor

Chain of VDRE-BP (NWP nuclear VDRE binding protein, B95-8 nuclear extract) (Q9TTV2 whole entry): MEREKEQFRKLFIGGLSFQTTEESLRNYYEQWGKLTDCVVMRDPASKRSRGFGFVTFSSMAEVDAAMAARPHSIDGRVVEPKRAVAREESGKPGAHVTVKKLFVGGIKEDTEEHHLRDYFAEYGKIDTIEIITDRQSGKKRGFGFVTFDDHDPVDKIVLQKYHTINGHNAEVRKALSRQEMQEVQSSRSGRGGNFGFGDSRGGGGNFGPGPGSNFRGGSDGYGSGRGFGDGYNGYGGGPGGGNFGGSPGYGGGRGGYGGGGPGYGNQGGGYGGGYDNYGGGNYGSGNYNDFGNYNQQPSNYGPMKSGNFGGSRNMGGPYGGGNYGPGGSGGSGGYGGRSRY

| Sequence | binding signal (% decrease of opVDRE band) |
| --- | --- |
| AGGTCA direct repeat, 3 bp spacer | 64 |
| GGTTCA direct repeat, 3 bp spacer | 61 |
